We go through seven molecules from article PMC7818446, “Enzymology of the pathway for ATP production by arginine breakdown” (The Febs Journal, 2020).

Data set [1] concerns the target T1, ArcC1 (carbamate kinase, CK) (Lactococcus lactis, UniProt Q9CE16).
T1 construct: expressed in L. lactis NZ9000; dimer (73 kDa)
T1 sequence (Q9CE16 1-314): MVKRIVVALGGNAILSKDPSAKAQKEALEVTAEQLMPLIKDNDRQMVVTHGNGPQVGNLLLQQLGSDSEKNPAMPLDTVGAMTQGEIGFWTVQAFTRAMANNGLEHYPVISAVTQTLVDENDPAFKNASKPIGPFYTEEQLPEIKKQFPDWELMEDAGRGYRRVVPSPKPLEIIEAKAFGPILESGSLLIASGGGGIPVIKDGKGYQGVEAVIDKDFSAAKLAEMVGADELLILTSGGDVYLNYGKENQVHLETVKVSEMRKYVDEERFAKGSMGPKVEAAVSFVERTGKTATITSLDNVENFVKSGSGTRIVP
The data set can be described thus: ATP formation by ATPlite luminescence. The data set is classed as biochemical. The settings on record: read-out: % inhibition at 10 mM.

Data set [2] addresses T2, ArcA (arginine deiminase, ADI) (Lactococcus lactis, UniProt P58013).
T2 construct: expressed in L. lactis NZ9000; tetramer (194 kDa)
T2 sequence (P58013 1-410): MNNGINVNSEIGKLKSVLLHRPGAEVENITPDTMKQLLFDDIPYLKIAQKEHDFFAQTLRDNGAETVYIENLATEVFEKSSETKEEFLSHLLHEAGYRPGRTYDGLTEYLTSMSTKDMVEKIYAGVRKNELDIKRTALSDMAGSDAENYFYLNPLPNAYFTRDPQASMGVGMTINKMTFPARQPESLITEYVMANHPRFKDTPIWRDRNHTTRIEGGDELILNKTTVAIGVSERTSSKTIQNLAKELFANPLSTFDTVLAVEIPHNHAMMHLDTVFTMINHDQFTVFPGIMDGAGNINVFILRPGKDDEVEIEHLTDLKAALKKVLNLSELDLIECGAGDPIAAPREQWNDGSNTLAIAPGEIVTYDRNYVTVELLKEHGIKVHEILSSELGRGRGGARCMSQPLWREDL
The data set can be described thus: citrulline formation, COLDER assay (A540); Michaelis-Menten with uncompetitive substrate inhibition. The data set is classed as biochemical. The settings on record: 3.2 nM ArcA, 50 mM KPi pH 7.0, 30 °C, n = 1.

Data set [3] has as its target T3, ArcB (ornithine transcarbamoylase, OTC) (Lactococcus lactis, UniProt P0C2U0).
T3 construct: expressed in L. lactis NZ9000; hexamer (245 kDa)
T3 sequence (P0C2U0 1-354): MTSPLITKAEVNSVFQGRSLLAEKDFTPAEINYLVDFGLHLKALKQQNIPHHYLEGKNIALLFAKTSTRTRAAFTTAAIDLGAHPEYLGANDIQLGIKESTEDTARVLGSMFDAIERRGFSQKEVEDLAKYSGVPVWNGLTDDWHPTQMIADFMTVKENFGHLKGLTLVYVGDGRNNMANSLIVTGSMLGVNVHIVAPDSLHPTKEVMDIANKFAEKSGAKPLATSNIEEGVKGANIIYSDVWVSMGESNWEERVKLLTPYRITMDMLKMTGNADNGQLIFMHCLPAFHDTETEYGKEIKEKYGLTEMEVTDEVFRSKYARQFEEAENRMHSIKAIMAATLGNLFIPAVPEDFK
The data set can be described thus: citrulline formation, COLDER assay (A540). The format is biochemical. The settings on record: read-out: % inhibition at 10 mM.

The target of data set [4] is T2, ArcA (arginine deiminase, ADI). Kind of data set: citrulline formation, COLDER assay (A540). The data set is classed as biochemical. To be noted: read-out: % inhibition at 10 mM.
Data set [5] has as its target T3, ArcB (ornithine transcarbamoylase, OTC). Kind of data set: citrulline formation, COLDER assay (A540). The format is biochemical. The settings on record: citrulline-forming direction; 5 mM carbamoyl-Pi; 50 mM KPi pH 7.0; 30 °C.
Data set [6] addresses T1, ArcC1 (carbamate kinase, CK). Kind of data set: ATP formation by ATPlite luminescence. The settings on record: 5 mM carbamoyl-Pi, 5 mM Mg-ADP; 50 mM KPi pH 7.0; 30 °C. The format is biochemical. (In general: In ATP-based viability assays light output follows the ATP content of the culture.)
Substrate in data set [7]: NC(=O)OP(=O)(O)O
Kind of data set: citrulline formation, COLDER assay (A540). The settings on record: citrulline-forming direction, 5 mM ornithine, 50 mM KPi pH 7.0, 30 °C. The format is biochemical, Lactococcus lactis.

Substrate in data set [8]: N=C(N)NCCC[C@H](N)C(=O)O
The data set can be described thus: citrulline formation, COLDER assay (A540). The format is biochemical, Lactococcus lactis. The settings on record: 50 mM KPi pH 7.0, 30 °C, 42 nM ArcA, arginine up to 480 µM.

Substrate in data set [9]: NCCC[C@H](N)C(=O)O
The data set can be described thus: purified protein. The settings on record: internal ornithine as counter-substrate, 25 µM external arginine, 50 mM KPi pH 7.0, 30 °C.

Substrate in data set [10]: N=C(N)NCCC[C@H](N)C(=O)O
Kind of data set: purified protein. The format is biochemical, Lactococcus lactis. The settings on record: external arginine, 10 mM internal ornithine, DOPE:DOPG:DOPC 50:38:12, 50 mM KPi pH 7.0, 30 °C, labelled compound.

Substrate in data set [11]: NC(=O)NCCC[C@H](N)C(=O)O
The data set can be described thus: purified protein. The data set is classed as biochemical, Lactococcus lactis. The settings on record: internal citrulline as counter-substrate, 25 µM external arginine, membrane potential −120 mV (valinomycin), pH 7.0, 30 °C.

Substrate in data set [12]: NC(=O)OP(=O)(O)O
The data set can be described thus: ATP/ADP ratio by PercevalHR fluorescence, pH-corrected with pyranine. The data set is classed as biochemical, Lactococcus lactis. To be noted: 5 mM Mg-ADP, 50 mM KPi pH 7.0, 30 °C.

Substrate in data set [13]: Nc1ncnc2c1ncn2[C@@H]1O[C@H](COP(=O)(O)OP(=O)(O)O)[C@@H](O)[C@H]1O
The data set is described as above. The format is biochemical, Lactococcus lactis. The settings on record: 5 mM carbamoyl-Pi, 50 mM KPi pH 7.0, 30 °C.

For the molecule `NC(=O)NCCC[C@H](N)C(=O)O` [L-citrulline], the inhibition at 10000 µM in [1] was 40 to 50%.
For the molecule `N=C(N)NCCC[C@H](N)C(=O)O` [L-arginine], in data set [2], the “K I” value is reported as 3.2 ± 0.4 mM. The inhibition at 10000 µM in data set [3] was 25%.
`NCCC[C@H](N)C(=O)O` [L-ornithine]: in data set [4], the inhibition at 10000 µM came out at 30%. Also, in [5], the Km was 700 ± 200 µM. For the same molecule, the “% inhibition” value in [6] is recorded as “ornithine was slightly inhibitory”.

B1: ArcB (ornithine transcarbamoylase, OTC) (Lactococcus lactis subsp. lactis Il1403) (protein)
chain: MTSPLITKAEVNSVFQGRSLLAEKDFTPAEINYLVDFGLHLKALKQQNIPHHYLEGKNIALLFAKTSTRTRAAFTTAAIDLGAHPEYLGANDIQLGIKESTEDTARVLGSMFDAIERRGFSQKEVEDLAKYSGVPVWNGLTDDWHPTQMIADFMTVKENFGHLKGLTLVYVGDGRNNMANSLIVTGSMLGVNVHIVAPDSLHPTKEVMDIANKFAEKSGAKPLATSNIEEGVKGANIIYSDVWVSMGESNWEERVKLLTPYRITMDMLKMTGNADNGQLIFMHCLPAFHDTETEYGKEIKEKYGLTEMEVTDEVFRSKYARQFEEAENRMHSIKAIMAATLGNLFIPAVPEDFK
notes: expressed in L. lactis NZ9000; hexamer (245 kDa)
With B1, in [7], the Km came out at 2700 ± 400 µM and the kcat was determined as 565 ± 45 s⁻¹.

B2: ArcA (arginine deiminase, ADI) (Lactococcus lactis subsp. lactis Il1403) (protein)
chain: MNNGINVNSEIGKLKSVLLHRPGAEVENITPDTMKQLLFDDIPYLKIAQKEHDFFAQTLRDNGAETVYIENLATEVFEKSSETKEEFLSHLLHEAGYRPGRTYDGLTEYLTSMSTKDMVEKIYAGVRKNELDIKRTALSDMAGSDAENYFYLNPLPNAYFTRDPQASMGVGMTINKMTFPARQPESLITEYVMANHPRFKDTPIWRDRNHTTRIEGGDELILNKTTVAIGVSERTSSKTIQNLAKELFANPLSTFDTVLAVEIPHNHAMMHLDTVFTMINHDQFTVFPGIMDGAGNINVFILRPGKDDEVEIEHLTDLKAALKKVLNLSELDLIECGAGDPIAAPREQWNDGSNTLAIAPGEIVTYDRNYVTVELLKEHGIKVHEILSSELGRGRGGARCMSQPLWREDL
notes: expressed in L. lactis NZ9000; tetramer (194 kDa)
With B2, in data set [8], the Km was determined as 34.5 ± 6.6 µM and the kcat is 3.3 ± 0.2 s⁻¹.

B3: ArcD2 (arginine/ornithine antiporter, AOA) (Lactococcus lactis subsp. lactis Il1403) (protein)
chain: MENKKTKGISLFALLAIIISGAIGGGVFNLANDLANGSTPGGVMISWLFIGFGIFMLVLSFNRLITIRPKLSGVSDYAREGFGDFIGFLSGWGYWISAWTGTIGFAVLMMTSADYFFPSKFANSNGSLTVLSVIIVSIISWILMFLVDRGVETAALVNAVVMIAKLIPLVVFSITGIILFKADVFTQHFWQTFTSNLAADGSVKSLVWHAMTAGGLLDQIKGSLMVMVWVFVGIEGAAMMGNRAKKKSDTAKATIIGLAVLLVIYVLLSLLPYGYMDQASLANVKAPGLVYILNEMVGGWGGSLMAIGLMISLLGAWLSWTMLPVEATQQLAEKKLLPSWFGKLNKYHAPSNSLLITQLMIQIFIIITYFVANAYNVFIYMATAVIMICYALVGAYLLKIGIKEGSIKNILIGFFTFAFQALALYLSGWQYVWLAMILYTIGFILFIKAKKESRQAISVKEWAGMFIVALLGVLAILVLICGAKSGTALDLRGLLGY
notes: expressed in L. lactis JP9000; reconstituted in proteoliposomes; monomer (53 kDa) in DDM
Regarding B3, the Km was determined as 2500 ± 700 µM in “purified protein [9]”, 6.0 ± 0.7 µM in “purified protein [10]” and 6000 ± 2100 µM in the data set “purified protein [11]”. For the same molecule, the values for the kcat in “purified protein [9]” and in “purified protein [10]” were 0.09 ± 0.009 s⁻¹ and 0.11 ± 0.005 s⁻¹, respectively.

B4: ArcC1 (carbamate kinase, CK) (Lactococcus lactis subsp. lactis Il1403) (protein)
chain: MVKRIVVALGGNAILSKDPSAKAQKEALEVTAEQLMPLIKDNDRQMVVTHGNGPQVGNLLLQQLGSDSEKNPAMPLDTVGAMTQGEIGFWTVQAFTRAMANNGLEHYPVISAVTQTLVDENDPAFKNASKPIGPFYTEEQLPEIKKQFPDWELMEDAGRGYRRVVPSPKPLEIIEAKAFGPILESGSLLIASGGGGIPVIKDGKGYQGVEAVIDKDFSAAKLAEMVGADELLILTSGGDVYLNYGKENQVHLETVKVSEMRKYVDEERFAKGSMGPKVEAAVSFVERTGKTATITSLDNVENFVKSGSGTRIVP
notes: expressed in L. lactis NZ9000; dimer (73 kDa)
Regarding B4, in data set [12], the Km is 600 ± 200 µM and the kcat came to 200 ± 20 s⁻¹. Further, in [13], the Km came out at 1600 ± 700 µM and the kcat amounted to 190 ± 15 s⁻¹.

What is called inhibition is the percentage by which the read-out fell short of the control. In general, Km refers to the substrate concentration at which the rate is half of its maximum. The kcat is the maximal rate divided by the concentration of active sites.
